From US11873336 (TENEOBIO, dated 2024) come the findings set out here.

Assay [1] addresses T1, human CD22 protein (recombinant CD22 extracellular domain) (human, UniProt P20273 20-687).
T1 construct: extracellular domain; also called SIGLEC-2
T1 sequence (looked up): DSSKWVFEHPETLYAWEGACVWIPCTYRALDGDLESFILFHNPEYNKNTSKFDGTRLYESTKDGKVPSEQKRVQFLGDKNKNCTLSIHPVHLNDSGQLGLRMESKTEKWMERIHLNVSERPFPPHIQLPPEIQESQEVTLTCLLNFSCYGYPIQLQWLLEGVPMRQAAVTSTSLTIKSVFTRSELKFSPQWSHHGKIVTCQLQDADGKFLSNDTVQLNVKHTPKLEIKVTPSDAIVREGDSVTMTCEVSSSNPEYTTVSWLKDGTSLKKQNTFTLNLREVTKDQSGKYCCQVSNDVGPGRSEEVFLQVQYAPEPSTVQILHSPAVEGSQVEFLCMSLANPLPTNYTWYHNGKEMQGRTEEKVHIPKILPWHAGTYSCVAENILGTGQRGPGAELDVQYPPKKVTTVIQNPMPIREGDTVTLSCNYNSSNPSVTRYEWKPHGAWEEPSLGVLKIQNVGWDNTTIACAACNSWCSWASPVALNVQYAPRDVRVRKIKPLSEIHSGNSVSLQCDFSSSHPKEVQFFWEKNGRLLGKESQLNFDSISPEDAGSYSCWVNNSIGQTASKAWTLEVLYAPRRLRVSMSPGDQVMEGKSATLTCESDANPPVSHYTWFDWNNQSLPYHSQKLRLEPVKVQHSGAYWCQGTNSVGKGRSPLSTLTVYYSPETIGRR
The assay is described as follows: ELISA on recombinant CD22 extracellular domain and/or cell binding.

The target of assay [2] is T2, human CD22 on CD22-positive Burkitt's lymphoma cells (Daudi, Raji, Ramos) (human, UniProt P20273 20-847).
T2 construct: whole, on cells; also called CD22+ cells; CD22 positive cells
T2 sequence (looked up): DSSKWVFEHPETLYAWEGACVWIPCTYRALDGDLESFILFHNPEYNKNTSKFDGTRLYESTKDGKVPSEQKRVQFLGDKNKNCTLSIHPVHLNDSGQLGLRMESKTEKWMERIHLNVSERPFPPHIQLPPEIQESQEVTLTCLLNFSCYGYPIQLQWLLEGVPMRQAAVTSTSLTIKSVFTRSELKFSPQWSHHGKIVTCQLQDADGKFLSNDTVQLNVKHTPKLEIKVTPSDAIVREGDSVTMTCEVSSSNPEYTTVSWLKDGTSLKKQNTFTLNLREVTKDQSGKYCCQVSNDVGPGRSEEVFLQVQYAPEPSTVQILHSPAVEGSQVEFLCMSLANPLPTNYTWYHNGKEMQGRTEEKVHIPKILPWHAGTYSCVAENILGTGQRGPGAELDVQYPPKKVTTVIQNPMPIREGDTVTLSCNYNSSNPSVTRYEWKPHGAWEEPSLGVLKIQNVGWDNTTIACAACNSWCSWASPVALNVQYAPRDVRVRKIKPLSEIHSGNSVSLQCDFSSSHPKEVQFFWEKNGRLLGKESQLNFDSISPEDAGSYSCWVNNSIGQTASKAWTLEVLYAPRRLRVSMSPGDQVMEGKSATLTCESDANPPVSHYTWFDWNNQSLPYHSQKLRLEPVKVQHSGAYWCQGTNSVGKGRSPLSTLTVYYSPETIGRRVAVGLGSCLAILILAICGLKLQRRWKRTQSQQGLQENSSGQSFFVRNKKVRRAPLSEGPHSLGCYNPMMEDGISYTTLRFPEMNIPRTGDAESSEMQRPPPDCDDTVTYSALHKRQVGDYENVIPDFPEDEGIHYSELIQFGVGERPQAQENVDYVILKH
The assay is described as follows: cell binding, Daudi cells.

B1: anti-CD22 heavy chain-only antibody with the VH of SEQ ID NO: 55 (antibody, V domains shown)
VH: QLQLQESGPGLVKPSETLSLTCAVYGGSFSGYYWGWIRQPPGKGLEWIGHIYYSGATYYNPSLKNRVTISVDTSRNQFSLNLSSVTAADTAVYYCTREDSSSWRSRGQGTLVTVSS
notes: Heavy chain-only antibody (UniAb), human IgG
With B1, the binding result in assay [1] and in assay [2] was “binds” throughout.
